The results in this text go back to the DeepSol protein solubility set.

The nature of this series: soluble on expression in E. coli; label from the status in PepcDB or PDB records.
As to “MNYLEGVGSKKGGGGIASESQFNLQRRKEVESLLSKGENVPYTFQDEKDDQVRSNPYIYKNHSGKLVCKLCNTMHMSWSSVERHLGGKKHGLNVLRRGISIEKSSLGREGQTTHDFRQQQKIIEAKQSLKNNGTIPVCKIATVKNPKNGSVGLAIQVNYSSEVKENSVDSDDKAKVPPLIRIVSGLELSDTKQKGKKFLVIAYEPFENIAIELPPNEILFSENNDMDNNNDGVDELNKKCTFWDAISKLYYVQFFFKQAEQEQADV”, the “soluble on expression in E. coli” value was “soluble”.
With “MSRSKKSRKPGTNSNDQLVVVRTRSESELESRLRKKLKKRKGLKSGSRHSEGSESQVRQAAQKRDPRLGSKKPIPLIVAEPKKLNKQERKLAAEQELAMLEKDAQLNVLLDRLDNGEKLGIGLQKYVDEKLDRIEVLMEQLGLLDDEPEPAPAPQSKPTKKRKTEDDLLSEFEQLDVDKYQD” the entry was “not soluble”.
With “NYNIYDHPKAAEDRKNTVLYLMHYHKRITDKQWEDAKKIDLKANLVNRTPEERQNIDTNQDSEYNSYVNFVKSELMNNKAFKDENLGNVLQSG” the entry was “not soluble”; with “MKLTPNFYRDRVCLNVLAGSKDNAREIYAAAEGHVLVGVLSKNYPDVASAVADMREYAALIDNALSVGLGAGDPNQSAMVSEISRQVQPQHVNQVFTGVGTSRALLGQNETVVNGLVSPTGTPGLVKISTGPLSSRAPDGIVPIETAIALLKDMGGSSVKYFPMGGLTCRDEYKAVAEPAPAMISGWNRRAVSIWKTSPRFCTSPLMQV”, “not soluble”.
Consider “MSLKHLWFEKGAYASKAARQYLNDHFNPLAVKKTAVIRHAALGDQVIVRPFLVEARKFFPNAEITLVTVSNYLYGTPSDLADKTVIMKSRDDSKQLSLRQKWQDYNQLEAQDIIFDVAGTNRSYWMTLLTKAKLKVGFPYKPFLCGTLYNLAVFRSDFQPEVECMLDMLKILGHNPSYPLDFAYPDNRQICDHAAPYIVYFSGASQLRKILTKPEMRAVIEQTIQQQPNVKHVFLEGKNEFEKGEYLQDLADNGSLTIQPCLPLDDLVTFIAKATLVIAPDTGIRNVAISTHTPTVGIFYATVPFRYTPLYEAHTIVMNANGEKPSTEQITSAIDTTLKMRLAAAKNTQEQEGHHHHHH”, for which the “soluble on expression in E. coli” value is “soluble”.
As to “MAHHHHHHMSYQPPYGYASSPQASPYFPGGNYYSTPPPIPQQQPFQTSPLFGTEQEAVQWFRAVSSSSGGYISVPQLQSALSQGGMNFSYATTERLISMFDANLDGAIDFTEFQELHRYILSMRGGFSQRDTSRDGLLEGNEVRMALSANFYQVDDNTFQTLMRKFDRRKRGSLGFDDYIELSLFVGKANDAFKAQSQGKASATFSFSSFLSAGASLL”, the “soluble on expression in E. coli” value was “soluble”.
For the sequence “MAHHHHHHMSTEVSSGSNDGPSFHHHIQDAVHMIWNNQCSEAEEILFPYKEIHPRYALEYANKYLVQTLMNSTNESREILLELFKVADSLASAAKYSEPMFDFDVENDGDGTGMSMCLPSKAERKISKKSFNGRRKAAEKAGQSFVDNWKLECDVIYADALLMRSVCQLMMNSYFKGGVNLRRTWGLYHKLIQVVEADRTNQIPNELKMCVKYGTGAFYAFLALVPANLMRLLNVIGFISDKELGEQYLTEVFESNGVRSPFAALVLCTLYLFLPTGLGRVEETLAKAKRILDAMNQKYEHNTYFYGYSNFYHRKRGETAEALMAIQLAETNAERAGLVPILIRYLHADTLFMDLRFEEARDRYAALLDHLAKTKESFAYTGQVVLSLAACFVMLGDDAQAIQWLKKVGSMYNSRSKNDANSPKFASRVLANPRLLPLCGVYMLYINRDLAHMKVEQAERLLEELTRVTKGKDLSGPEPENMFTLFVGVIHKGCDRIDEAFGYMSKIFANEKRVPNDSMVLPYAYYEAGELEYRRGNYENAKTLFTKGQSLKGDGNETLMNRYNIALKQLKRTMEERKGA”, the “soluble on expression in E. coli” value is recorded as “not soluble”.
With “MQRHERIRFFITEQCRNLDPTYRNYMYPKQILLGDVPLPLLPNSSLTFRVNSAEKICFRIRLSIDDSQEPLNIGIPLSQVESVSIKDHSAKHPEPALLFLLKKGALERFIQVCNPLLGELHTYHGRKRKMLTYLTVILGMDPHLEQPNPVYCRVSLMANKFTFPFGTAKKILLKDLPIMWQEVLDKQYDRRLKTGIHHDRERMAEMDDEAWDWLMSFLNVKWDKCPSGGRWFVRDKDEILQSNEKLHHKMIYWLNQ” the entry was “not soluble”.
